The values that follow come from PMC10668032, “Altered binding affinity of SIX1-Q177R correlates with enhanced WNT5A and WNT pathway effector expression in Wilms tumor”.

The target of the series is T1, SIX1-Q177R (human, UniProt Q15475 1-284, Q177R).
T1 sequence: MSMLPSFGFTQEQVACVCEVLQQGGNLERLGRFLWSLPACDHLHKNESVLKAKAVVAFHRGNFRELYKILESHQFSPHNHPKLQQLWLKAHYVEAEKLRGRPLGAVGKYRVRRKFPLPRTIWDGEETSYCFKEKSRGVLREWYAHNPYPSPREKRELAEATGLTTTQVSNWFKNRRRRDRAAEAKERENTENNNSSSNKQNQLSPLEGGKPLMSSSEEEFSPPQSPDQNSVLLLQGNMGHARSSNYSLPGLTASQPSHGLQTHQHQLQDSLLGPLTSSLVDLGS
Description: EMSA; EMSA: Active Motif Gelshift or Thermo LightShift chemiluminescent kit binding buffer, no glycerol, no poly d(I-C), RT 25 min; protein dilutions 1-300 nM; 6% gel in 0.5x TBE; pH and salt not given. The following applies: protein: recombinant; tags: N-terminal HA from pGEX-6p1-N-HA (GST removed with PreScission); label: biotin 3' end (both strands, Pierce 3' end-labeling kit); blunt. For orientation: A gel shift assay detects complexes by their altered migration in electrophoresis.

B1: WNT5A_promoter_EMSA (dsDNA)
DNA 1: CCCGCCCTAAGTGTCAAATTTCCTCCAGGGGAG
DNA 2: CTCCCCTGGAGGAAATTTGACACTTAGGGCGGG
With B1, the binding signal was ~10 fold higher affinity than SIX1 on same probe.
